# According to patent US20220204580A1 (AstraZeneca / MedImmune, published 2022):
# Numbered stars: 1 amine (or outer) side, 2 acyl side, 3 side chain; on linkers, the order of the positions; unused ones are H or OH. Bridge positions count the residues as written; N and C are the ends. Square brackets hold non-standard residues; d marks the D form. Side chains are listed from the residue outwards. Ends that are not written are not given here. * marks the point of attachment. C20 diacid = O=C(O)CCCCCCCCCCCCCCCCCCC(=O)*; C18 diacid = O=C(O)CCCCCCCCCCCCCCCCC(=O)*; γGlu = O=C(O)[C@H](CCC(=O)[*:2])N[*:1]; αMeF = C[C@](N)(Cc1ccccc1)C(=O)O; Aib = CC(C)(N)C(=O)O
# T1: human calcitonin receptor (human, UniProt P30988 25-474)
# T1 sequence (looked up): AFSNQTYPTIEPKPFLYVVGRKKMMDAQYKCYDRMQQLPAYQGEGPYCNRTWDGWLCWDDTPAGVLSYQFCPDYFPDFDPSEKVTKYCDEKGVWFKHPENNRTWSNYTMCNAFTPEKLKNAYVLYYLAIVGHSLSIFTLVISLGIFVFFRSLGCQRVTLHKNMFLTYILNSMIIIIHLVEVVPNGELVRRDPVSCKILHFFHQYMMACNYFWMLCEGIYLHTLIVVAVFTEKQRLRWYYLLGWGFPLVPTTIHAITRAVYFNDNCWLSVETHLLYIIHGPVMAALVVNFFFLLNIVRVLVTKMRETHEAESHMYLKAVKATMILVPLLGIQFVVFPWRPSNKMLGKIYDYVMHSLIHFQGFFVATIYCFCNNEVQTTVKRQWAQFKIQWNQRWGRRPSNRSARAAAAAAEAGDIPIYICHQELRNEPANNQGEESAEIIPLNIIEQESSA
# T2: human amylin receptor (calcitonin receptor co-expressed with receptor activity modifying protein, RAMP3) (human, UniProt P30988 25-474; O60896 24-148)
# T2 sequence (looked up) 1: T1 sequence (looked up)
# T2 sequence (looked up) 2: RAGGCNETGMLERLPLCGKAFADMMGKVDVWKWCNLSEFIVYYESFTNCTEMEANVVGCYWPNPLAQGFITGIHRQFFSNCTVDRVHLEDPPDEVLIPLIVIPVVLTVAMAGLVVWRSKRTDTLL
# B1: Peptide 108 (SEQ ID NO: 108) (peptide)
# peptide: K([γGlu-C18 diacid])KCNTATCATQRLANFLVHSSNNFGPI[Aib]PPTNVGSNTY-NH2
# modifications: disulfide 3-8; N-terminus assumed
# SMILES: CC[C@H](C)[C@H](NC(=O)[C@@H]1CCCN1C(=O)CNC(=O)[C@H](Cc1ccccc1)NC(=O)[C@H](CC(N)=O)NC(=O)[C@H](CC(N)=O)NC(=O)[C@H](CO)NC(=O)[C@H](CO)NC(=O)[C@H](Cc1c[nH]cn1)NC(=O)[C@@H](NC(=O)[C@H](CC(C)C)NC(=O)[C@H](Cc1ccccc1)NC(=O)[C@H](CC(N)=O)NC(=O)[C@H](C)NC(=O)[C@H](CC(C)C)NC(=O)[C@H](CCCNC(=N)N)NC(=O)[C@H](CCC(N)=O)NC(=O)[C@@H](NC(=O)[C@H](C)NC(=O)[C@@H]1CSSC[C@H](NC(=O)[C@H](CCCCN)NC(=O)[C@@H](N)CCCCNC(=O)CC[C@H](NC(=O)CCCCCCCCCCCCCCCCC(=O)O)C(=O)O)C(=O)N[C@@H](CC(N)=O)C(=O)N[C@@H]([C@@H](C)O)C(=O)N[C@@H](C)C(=O)N[C@@H]([C@@H](C)O)C(=O)N1)[C@@H](C)O)C(C)C)C(=O)NC(C)(C)C(=O)N1CCC[C@H]1C(=O)N1CCC[C@H]1C(=O)N[C@H](C(=O)N[C@@H](CC(N)=O)C(=O)N[C@H](C(=O)NCC(=O)N[C@@H](CO)C(=O)N[C@@H](CC(N)=O)C(=O)N[C@H](C(=O)N[C@@H](Cc1ccc(O)cc1)C(N)=O)[C@@H](C)O)C(C)C)[C@@H](C)O
# B2: Peptide 117 (SEQ ID NO: 117) (peptide)
# peptide: K([γGlu-γGlu-C20 diacid])CNTATCATQRLANFLVHSS[Aib]NFPAILSPTNVGSNTY-NH2
# modifications: disulfide 2-7; N-terminus assumed
# SMILES: CC[C@H](C)[C@H](NC(=O)[C@H](C)NC(=O)[C@@H]1CCCN1C(=O)[C@H](Cc1ccccc1)NC(=O)[C@H](CC(N)=O)NC(=O)C(C)(C)NC(=O)[C@H](CO)NC(=O)[C@H](CO)NC(=O)[C@H](Cc1c[nH]cn1)NC(=O)[C@@H](NC(=O)[C@H](CC(C)C)NC(=O)[C@H](Cc1ccccc1)NC(=O)[C@H](CC(N)=O)NC(=O)[C@H](C)NC(=O)[C@H](CC(C)C)NC(=O)[C@H](CCCNC(=N)N)NC(=O)[C@H](CCC(N)=O)NC(=O)[C@@H](NC(=O)[C@H](C)NC(=O)[C@@H]1CSSC[C@H](NC(=O)[C@@H](N)CCCCNC(=O)CC[C@H](NC(=O)CC[C@H](NC(=O)CCCCCCCCCCCCCCCCCCC(=O)O)C(=O)O)C(=O)O)C(=O)N[C@@H](CC(N)=O)C(=O)N[C@@H]([C@@H](C)O)C(=O)N[C@@H](C)C(=O)N[C@@H]([C@@H](C)O)C(=O)N1)[C@@H](C)O)C(C)C)C(=O)N[C@@H](CC(C)C)C(=O)N[C@@H](CO)C(=O)N1CCC[C@H]1C(=O)N[C@H](C(=O)N[C@@H](CC(N)=O)C(=O)N[C@H](C(=O)NCC(=O)N[C@@H](CO)C(=O)N[C@@H](CC(N)=O)C(=O)N[C@H](C(=O)N[C@@H](Cc1ccc(O)cc1)C(N)=O)[C@@H](C)O)C(C)C)[C@@H](C)O
# B3: Peptide 110 (SEQ ID NO: 110) (peptide)
# peptide: K([γGlu-C18 diacid])KCNTATCATQRLANFLVHSSNNF[Aib]PILPPTNVGSNTY-NH2
# modifications: disulfide 3-8; N-terminus assumed
# SMILES: CC[C@H](C)[C@H](NC(=O)[C@@H]1CCCN1C(=O)C(C)(C)NC(=O)[C@H](Cc1ccccc1)NC(=O)[C@H](CC(N)=O)NC(=O)[C@H](CC(N)=O)NC(=O)[C@H](CO)NC(=O)[C@H](CO)NC(=O)[C@H](Cc1c[nH]cn1)NC(=O)[C@@H](NC(=O)[C@H](CC(C)C)NC(=O)[C@H](Cc1ccccc1)NC(=O)[C@H](CC(N)=O)NC(=O)[C@H](C)NC(=O)[C@H](CC(C)C)NC(=O)[C@H](CCCNC(=N)N)NC(=O)[C@H](CCC(N)=O)NC(=O)[C@@H](NC(=O)[C@H](C)NC(=O)[C@@H]1CSSC[C@H](NC(=O)[C@H](CCCCN)NC(=O)[C@@H](N)CCCCNC(=O)CC[C@H](NC(=O)CCCCCCCCCCCCCCCCC(=O)O)C(=O)O)C(=O)N[C@@H](CC(N)=O)C(=O)N[C@@H]([C@@H](C)O)C(=O)N[C@@H](C)C(=O)N[C@@H]([C@@H](C)O)C(=O)N1)[C@@H](C)O)C(C)C)C(=O)N[C@@H](CC(C)C)C(=O)N1CCC[C@H]1C(=O)N1CCC[C@H]1C(=O)N[C@H](C(=O)N[C@@H](CC(N)=O)C(=O)N[C@H](C(=O)NCC(=O)N[C@@H](CO)C(=O)N[C@@H](CC(N)=O)C(=O)N[C@H](C(=O)N[C@@H](Cc1ccc(O)cc1)C(N)=O)[C@@H](C)O)C(C)C)[C@@H](C)O
# B4: Peptide 111 (SEQ ID NO: 111) (peptide)
# peptide: K([γGlu-C18 diacid])KCNTATCATQRLANFLVHSSNHFGPILPPTNVGSETY-NH2
# modifications: disulfide 3-8; N-terminus assumed
# SMILES: CC[C@H](C)[C@H](NC(=O)[C@@H]1CCCN1C(=O)CNC(=O)[C@H](Cc1ccccc1)NC(=O)[C@H](Cc1c[nH]cn1)NC(=O)[C@H](CC(N)=O)NC(=O)[C@H](CO)NC(=O)[C@H](CO)NC(=O)[C@H](Cc1c[nH]cn1)NC(=O)[C@@H](NC(=O)[C@H](CC(C)C)NC(=O)[C@H](Cc1ccccc1)NC(=O)[C@H](CC(N)=O)NC(=O)[C@H](C)NC(=O)[C@H](CC(C)C)NC(=O)[C@H](CCCNC(=N)N)NC(=O)[C@H](CCC(N)=O)NC(=O)[C@@H](NC(=O)[C@H](C)NC(=O)[C@@H]1CSSC[C@H](NC(=O)[C@H](CCCCN)NC(=O)[C@@H](N)CCCCNC(=O)CC[C@H](NC(=O)CCCCCCCCCCCCCCCCC(=O)O)C(=O)O)C(=O)N[C@@H](CC(N)=O)C(=O)N[C@@H]([C@@H](C)O)C(=O)N[C@@H](C)C(=O)N[C@@H]([C@@H](C)O)C(=O)N1)[C@@H](C)O)C(C)C)C(=O)N[C@@H](CC(C)C)C(=O)N1CCC[C@H]1C(=O)N1CCC[C@H]1C(=O)N[C@H](C(=O)N[C@@H](CC(N)=O)C(=O)N[C@H](C(=O)NCC(=O)N[C@@H](CO)C(=O)N[C@@H](CCC(=O)O)C(=O)N[C@H](C(=O)N[C@@H](Cc1ccc(O)cc1)C(N)=O)[C@@H](C)O)C(C)C)[C@@H](C)O
# B5: Peptide 109 (SEQ ID NO: 109) (peptide)
# peptide: K([γGlu-C18 diacid])KCNTATCATQRLANFLVHSSN[Aib]FGPILPPTNVGSNTY-NH2
# modifications: disulfide 3-8; N-terminus assumed
# SMILES: CC[C@H](C)[C@H](NC(=O)[C@@H]1CCCN1C(=O)CNC(=O)[C@H](Cc1ccccc1)NC(=O)C(C)(C)NC(=O)[C@H](CC(N)=O)NC(=O)[C@H](CO)NC(=O)[C@H](CO)NC(=O)[C@H](Cc1c[nH]cn1)NC(=O)[C@@H](NC(=O)[C@H](CC(C)C)NC(=O)[C@H](Cc1ccccc1)NC(=O)[C@H](CC(N)=O)NC(=O)[C@H](C)NC(=O)[C@H](CC(C)C)NC(=O)[C@H](CCCNC(=N)N)NC(=O)[C@H](CCC(N)=O)NC(=O)[C@@H](NC(=O)[C@H](C)NC(=O)[C@@H]1CSSC[C@H](NC(=O)[C@H](CCCCN)NC(=O)[C@@H](N)CCCCNC(=O)CC[C@H](NC(=O)CCCCCCCCCCCCCCCCC(=O)O)C(=O)O)C(=O)N[C@@H](CC(N)=O)C(=O)N[C@@H]([C@@H](C)O)C(=O)N[C@@H](C)C(=O)N[C@@H]([C@@H](C)O)C(=O)N1)[C@@H](C)O)C(C)C)C(=O)N[C@@H](CC(C)C)C(=O)N1CCC[C@H]1C(=O)N1CCC[C@H]1C(=O)N[C@H](C(=O)N[C@@H](CC(N)=O)C(=O)N[C@H](C(=O)NCC(=O)N[C@@H](CO)C(=O)N[C@@H](CC(N)=O)C(=O)N[C@H](C(=O)N[C@@H](Cc1ccc(O)cc1)C(N)=O)[C@@H](C)O)C(C)C)[C@@H](C)O
# Legend:
# [1] = molecular target: T1, human calcitonin receptor; experiment: cell-based or functional assay
# [2] = molecular target: T2, human amylin receptor (calcitonin …); experiment: cell-based or functional assay
Binder,EC50 (cAMP production) [1] [nM],EC50 (cAMP production) [2] [nM],Ratio (EC50 hCTR / EC50 hAMYR3) [2]
B1,6.81,0.801,8
B2,3.19,0.77,4
K([γGlu-γGlu-C18 diacid])CNTATCATQRLANFLVHSSNN[αMeF]GPILPPTNVGSNTY-NH2 (disulfide 2-7) [Peptide 13 (SEQ ID NO: 13)],2.04,0.196,10
B3,0.541,0.204,3
B4,1.88,0.403,5
B5,0.176,0.082,2
